Measured values from US20210079074A1.

Experiments:
[1] = biological target: human MS4A4A (human), Q96JQ5; experiment: FACS, U937-huMS4A4A, 5 ug/ml; details: remark: other sources report otherwise
[2] = biological target: human MS4A4A (human), Q96JQ5; experiment: FACS, U937-huMS4A4A, 5 ug/ml; details: remark: other sources report otherwise; remark: listed apart in the source
[3] = biological target: recombinant MS4A4A soluble polypeptide JS5; experiment: ELISA, 0.4 ug/ml antibody

| Binder | MFI [1] | MFI [2] | OD450 [3] |
| --- | --- | --- | --- |
| anti-MS4A4A antibody 4A-21 (antibody, V domains shown) VH: QIQLVQSGPELKKPGETVKISCKASGYIFTSYGLSWVKQTPGKGLKWMGWINTYSGVPTYANDFKGRFAFSLETSASTTYLRINNLKNDDTATYFCARSLVDYWGQGTPLTVSS VL: not shown | 670 | 18800 |  |
| anti-MS4A4A antibody 4A-357 (antibody, V domains shown) VH: QVQLVQSGSELKKPGASVKVSCKASGYIFTSYGLSWVRQAPGQGLEWMGWINTYSGVPTYAQGFTGRFVFSLDTSVSTAYLQISSLKAEDTAVYYCARTLADYWGQGTLVTVSS VL: DVVMTQSPLSLPVTLGQPASISCKSSQSLLYSDGKTYLSWFQQRPGQSPRRLIYEVSKLDSGVPDRFSGSGSGTDFTLKISRVEAEDVGVYYCWQGIDFHQTFGGGTKVEIK |  |  | 0.892 |
| anti-MS4A4A antibody 4A-361 (antibody, V domains shown) VH: QVQLVQSGSELKKPGASVKVSCKASGYIFTSYGLSWVRQAPGQGLEWMGWINTYSGVPTYAQGFTGRFVFSLDTSVSTAYLQISSLKAEDTAVYYCARTLADYWGQGTLVTVSS VL: DVVMTQSPLSLPVTLGQPASISCKSSQSLLYSDGKTYLSWFQQRPGQSPRRLIYLVSKLESGVPDRFSGSGSGTDFTLKISRVEAEDVGVYYCWQGIDFHQTFGGGTKVEIK |  |  | 0.79 |
| anti-MS4A4A antibody 4A-375 (antibody, V domains shown) VH: QVQLVQSGSELKKPGASVKVSCKASGYIFTSYGLSWVRQAPGQGLEWMGWINTYSGVPTYAQGFTGRFVFSLDTSVSTAYLQISSLKAEDTAVYYCARSLADYWGQGTLVTVSS VL: DVVMTQSPLSLPVTLGQPASISCKSSRSLLYSDGKTYLSWFQQRPGQSPRRLIYLVSKLDSGVPDRFSGSGSGTDFTLKISRVEAEDVGVYYCWQGIDFHQTFGGGTKVEIK |  |  | 0.996 |
| anti-MS4A4A antibody 4A-366 (antibody, V domains shown) VH: QVQLVQSGSELKKPGASVKVSCKASGYTFTSYGLSWIRQAPGQGLEWMGWINTYSGVPTYAQGFTGRFVFSLDTSVSTAYLQISSLKAEDTAVYYCARTMVDYWGQGTLVTVSS VL: DVVMTQSPLSLPVTLGQPASISCKSSRSLLYSDGKTYLSWFQQRPGQSPRRLIYLVSKLDSGVPDRFSGSGSGTDFTLKISRVEAEDVGVYYCWQGIDFHQTFGGGTKVEIK |  |  | 0.875 |
| anti-MS4A4A antibody 4A-371 (antibody, V domains shown) VH: QVQLVQSGSELKKPGASVKVSCKASGYIFTSYGLSWVRQAPGQGLEWMGWINTYSGVPTYAQGFTGRFVFSLDTSVSTAYLQISSLKAEDTAVYYCARTLGDYWGQGTLVTVSS VL: DVVMTQSPLSLPVTLGQPASISCKSSQSLLYSDGKTYLSWFQQRPGQSPRRLIYLVSKLDSGVPDRFSGSGSGTDFTLKISRVEAEDVGVYYCWQGIDFHQTFGGGTKVEIK |  |  | 0.955 |
| anti-MS4A4A antibody 4A-365 (antibody, V domains shown) VH: QVQLVQSGSELKKPGASVKVSCKASGYTFTSYGLSWIRQAPGQGLEWMGWINTYSGVPTYAQGFTGRFVFSLDTSVSTAYLQISSLKAEDTAVYYCARTMVDYWGQGTLVTVSS VL: DVVMTQSPLSLPVTLGQPASISCKSSQSLLYSDGKTYLSWFQQRPGQSPRRLIYLVSKLSSGVPDRFSGSGSGTDFTLKISRVEAEDVGVYYCWQGIDFHQTFGGGTKVEIK |  |  | 0.845 |
| anti-MS4A4A antibody 4A-368 (antibody, V domains shown) VH: QVQLVQSGSELKKPGASVKVSCKASGYTFTSYGLSWIRQAPGQGLEWMGWINTYSGVPTYAQGFTGRFVFSLDTSVSTAYLQISSLKAEDTAVYYCARTMVDYWGQGTLVTVSS VL: DVVMTQSPLSLPVTLGQPASISCKSSQSLLYSDGKTYLSWFQQRPGQSPRRLIYLVSKLESGVPDRFSGSGSGTDFTLKISRVEAEDVGVYYCWQGIDFHQTFGGGTKVEIK |  |  | 0.901 |
| anti-MS4A4A antibody 4A-374 (antibody, V domains shown) VH: QVQLVQSGSELKKPGASVKVSCKASGYIFTSYGLSWVRQAPGQGLEWMGWINTYSGVPTYAQGFAGRFVFSLDTSVSTAYLQISSLKAEDTAVYYCARTLVDYWGQGTLVTVSS VL: DVVMTQSPLSLPVTLGQPASISCKSSRSLLYSDGKTYLSWFQQRPGQSPRRLIYLVSKLDSGVPDRFSGSGSGTDFTLKISRVEAEDVGVYYCWQGIDFHQTFGGGTKVEIK |  |  | 0.833 |
| anti-MS4A4A antibody 4A-367 (antibody, V domains shown) VH: QVQLVQSGSELKKPGASVKVSCKASGYTFTSYGLSWIRQAPGQGLEWMGWINTYSGVPTYAQGFTGRFVFSLDTSVSTAYLQISSLKAEDTAVYYCARTMVDYWGQGTLVTVSS VL: DVVMTQSPLSLPVTLGQPASISCKSSQSLLYSDGKTYLSWFQQRPGQSPRRLIYLVSKLDSGVPDRFSGSGSGTDFTLKISRVEAEDVGVYYCWQGIDFHQTFGGGTKVEIK |  |  | 0.961 |
| anti-MS4A4A antibody 4A-372 (antibody, V domains shown) VH: QVQLVQSGSELKKPGASVKVSCKASGYIFTSYGLSWVRQAPGQGLEWMGWINTYSGVPTYAQGFTGRFVFSLDTSVSTAYLQISSLKAEDTAVYYCARTLGDYWGQGTLVTVSS VL: DVVMTQSPLSLPVTLGQPASISCKSSQSLLYSDGKTYLSWFQQRPGQSPRRLIYLVSRLDSGVPDRFSGSGSGTDFTLKISRVEAEDVGVYYCWQGIDFHQTFGGGTKVEIK |  |  | 0.873 |
| anti-MS4A4A antibody 4A-364 (antibody, V domains shown) VH: QVQLVQSGSELKKPGASVKVSCKASGYTFTSYGLSWIRQAPGQGLEWMGWINTYSGVPTYAQGFTGRFVFSLDTSVSTAYLQISSLKAEDTAVYYCARTMVDYWGQGTLVTVSS VL: DVVMTQSPLSLPVTLGQPASISCKASQSLLYSDGKTYLSWFQQRPGQSPRRLIYLVSKLDSGVPDRFSGSGSGADFTLKISRVEAEDVGVYYCWQGIDFHQTFGGGTKVEIK |  |  | 0.959 |
| anti-MS4A4A antibody 4A-359 (antibody, V domains shown) VH: QVQLVQSGSELKKPGASVKVSCKASGYIFTSYGLSWVRQAPGQGLEWMGWINTYSGVPTYAQGFTGRFVFSLDTSVSTAYLQISSLKAEDTAVYYCARTLADYWGQGTLVTVSS VL: DVVMTQSPLSLPVTLGQPASISCKASQSLLYSDGKTYLSWFQQRPGQSPRRLIYLVSKLDSGVPDRFSGSGSGADFTLKISRVEAEDVGVYYCWQGIDFHQTFGGGTKVEIK |  |  | 0.892 |
| anti-MS4A4A antibody 4A-363 (antibody, V domains shown) VH: QVQLVQSGSELKKPGASVKVSCKASGYIFTSYGLSWVRQAPGQGLEWMGWINTYSGVPTYAQGFTGRFVFSLDTSVSTAYLQISSLKAEDTAVYYCARTLADYWGQGTLVTVSS VL: DVVMTQSPLSLPVTLGQPASISCKSSQSLLYSDGKTYLSWFQQRPGQSPRRLIYLVSKLSSGVPDRFSGSGSGTDFTLKISRVEAEDVGVYYCWQGIDFHQTFGGGTKVEIK |  |  | 0.833 |
| anti-MS4A4A antibody 4A-370 (antibody, V domains shown) VH: QVQLVQSGSELKKPGASVKVSCKASGYIFTSYGLSWVRQAPGQGLEWMGWINTYSGVPTYAQGFTGRFVFSLDTSVSTAYLQISSLKAEDTAVYYCARTLGDYWGQGTLVTVSS VL: DVVMTQSPLSLPVTLGQPASISCKSGQSLLYSDGKTYLSWFQQRPGQSPRRLIYLVSRLDSGVPDRFSGSGSGTDFTLKISRVEAEDVGVYYCWQGIDFHQTFGGGTKVEIK |  |  | 0.822 |
